Measurements published in article PMC9406036, “The Catalytic Domain Mediates Homomultimerization of MT1-MMP and the Prodomain Interferes with MT1-MMP Oligomeric Complex Assembly” (Biomolecules, 2022).
Several values for one entry are separate records, joined by “and”; a condition that tells them apart may be missing. Identical values can stand only once.

Biological target: the molecule itself
Experiment: SEC; preparative Sephacryl S-200 gel filtration (120 mL), IMAC-purified protein at about 1 mg/mL, 1 mL injected after a 0.22 µm filter, 50 mM Tris pH 7.4, 150 mM NaCl, 5 mM CaCl2, 10 µM CT1746; sizes from a calibration curve; fractions checked by SDS-PAGE

B1: WT-Cat-L (catalytic domain with the linker of MT1-MMP), secreted without the prodomain (domain or fragment)
chain: not shown
notes: human MT1-MMP (MMP-14) catalytic domain with the linker; Found as monomer, dimer and higher multimers on gel filtration; also called Cat-L construct; source: Drosophila S2 insect cells, purified (IMAC, Sephacryl S-200)
  stoichiometry N: 2 and > 3
